As a reminder, the Km is the substrate concentration at which the rate is half of its maximum. Broadly, the stoichiometry N is the number of molecules, sites or subunits per partner or assembly.

Here are results for two compounds from PMC9063841, “Structural insights into choline-O-sulfatase reveal the molecular determinants for ligand binding” (Acta Crystallographica. Section D, Structural Biology, 2022).

One assay deals with T1, SmeCOSe (Sinorhizobium meliloti, UniProt O69787).
T1 construct: gene betC; full length, C-terminal His6 (pET-21b(+), plasmid pSERQF5), E. coli BL21(DE3); homotetramer, about 201 kDa; Cys54 is formylglycine in wild type; natural difference at residue 105 (printed F105L against strain GR4 CP003933.2, but L105F)
The assay is described as follows: absorbance at […] nm (p-nitrophenol release). Type of assay: biochemical. The note with it: pH 7.0.

Assay [1] concerns the target wild-type Sinorhizobium (Ensifer) meliloti choline-O-sulfatase (Sinorhizobium (Ensifer) meliloti CECT4857) (UniProt O69787). Briefly: dynamic light scattering; 20 uM (in protomer units), 20 mM Tris-HCl pH 8.0, 20 C; mass from the hydrodynamic radius assuming a spherical shape.
The target is the same in assay [2]. The assay is described as follows: SEC; 100 ul samples of SmeCOSe (0.1-1 mg/ml, three concentrations) on a Tricorn Superdex 200 column, 20 mM Tris-HCl pH 8.0; mass estimated against standards.

On to `O=[N+]([O-])c1ccc(OS(=O)(=O)O)cc1` [pNPS], for which, on SmeCOSe, the Km worked out at 45.7 ± 12.5 mM. For the compound “wild-type Sinorhizobium (Ensifer) meliloti choline-O-sulfatase (from UniProt O69787 2-512) (enzyme)”, the stoichiometry N in assay [1] and in assay [2] was 4 in each case.
